From paper PMC6017478, “Exploring Alternative Radiolabeling Strategies for Sialic Acid-Binding Immunoglobulin-Like Lectin 9 Peptide: [^68Ga]Ga- and [^18F]AlF-NOTA-Siglec-9” (Molecules : A Journal of Synthetic Chemistry and Natural …, 2018) come the findings set out here.

Structures are written as SMILES. Positions of bridges follow the written chain, without caps; N, C: chain ends. Residues, ends and D or L forms follow the SMILES beside them. Groups on a side chain read outwards from the residue. *: point of attachment. NOTA = O=C(O)CN1CCN(CC(=O)O)CCN(CC(=O)*)CC1; AEEA = NCCOCCOCC(=O)O

For data set [1] the following is noted: rat, in vivo, iv. The protocol: The rats were subcutaneously injected with 50 µL turpentine oil (Sigma-Aldrich) into the right shoulder area (foreleg) to induce skin/muscle inflammation, which was allowed to develop for 24 h prior to PET imaging. For imaging and ex vivo analysis, the rats were anesthetized using isoflurane and intravenously injected with 17.7 ± 3.4 MBq of one of the two radiotracers via the tail vein cannula. Immediately after injection a dynamic 60-min PET scan was performed on four rats for [^68Ga]Ga-NOTA-Siglec-9 and four rats for [^18F]AlF-NOTA-Siglec-9. The data were acquired in list-mode and iteratively reconstructed with a 3-D ordered subsets expectation maximization algorithm with 8 iterations, 16 subsets, and a 2-mm full-width at half-maximum post-filter into 6 × 10 s, 4 × 60 s, 5 × 300 s, and 3 × 600 s time frames. After imaging, the rats were euthanized, and various tissues, including inflamed skin/muscle (inflamed area) from the right foreleg, skin from the left foreleg (control area), and healthy muscle from the left hind leg, were excised, weighed, and measured with a γ-counter. The ex vivo radioactivity measurements were decay-corrected from the time of injection, and the results were expressed as SUV. Plasma protein binding was measured from plasma samples taken from 60 min post-injections. […] Radioactivity of both the precipitate and the supernatant was measured by γ-counting.

Data set [2] is classed as physicochemical. The settings on record: pH 7.6. The protocol:
The distribution coefficient (Log D) was measured by adding 5 kBq of tracer into a mixture of PBS (pH 7.6) and 1-octanol (1:1, v/v). The solution was mixed thoroughly for 5 min at room temperature. After separation of phases by centrifugation (12,000× g, 6 min), 100 µL aliquots of each phase layer were taken for γ-counting to determine Log D. The test was repeated three times. Log D was calculated as Log D=log10 counts per minute in octanol/counts per minute in PBS .

`CC(C)C[C@@H]1NC(=O)CNC(=O)[C@H](CCCNC(=N)N)NC(=O)[C@H](Cc2c[nH]c3ccccc23)NC(=O)[C@H](CO)NC(=O)[C@H](CC(C)C)NC(=O)[C@H](CO)NC(=O)[C@H](CC(C)C)NC(=O)[C@H](CCCNC(=N)N)NC(=O)[C@H](C)NC(=O)[C@@H](N)CSSC[C@@H](C(=O)N2CCC[C@H]2C(=O)N[C@@H](CO)C(=O)N[C@@H](CCCCNC(=O)COCCOCCNC(=O)CN2CCN(CC(=O)O)CCN(CC(=O)O)CC2)C(=O)O)NC(=O)[C@H](CC(C)C)NC(=O)[C@H]([C@@H](C)O)NC1=O` [[^68Ga]Ga-NOTA-Siglec-9] [metal not drawn] (H-CARLSLSWRGLTLCPSK([AEEA-NOTA])-OH; disulfide 1-14) showed a Plasma protein binding in data set [1] of 31.4 ± 3.4%. In addition, the “Log D” value in data set [2] is reported as −3.2 ± 0.3.
